Earlier results as cited in US20240409647A1, “BISPECIFIC BINDING PROTEINS AGAINST ALARMINS AND USES THEREOF” (SINOMAB BIOSCIENCE LIMITED, priority 2022, published 2024).

Conditions: patients who discontinued ICS and LABA, 12 weeks; placebo 41%

B1: itepekimab: anti-IL-33 antibody (antibody, chains of the INN, looked up, V domains shown)
VH: EVQLVESGGNLEQPGGSLRLSCTASGFTFSRSAMNWVRRAPGKGLEWVSGISGSGGRTYYADSVKGRFTISRDNSKNTLYLQMNSLSAEDTAAYYCAKDSYTTSWYGGMDVWGHGTTVTVSS
VL: DIQMTQSPSSVSASVGDRVTITCRASQGIFSWLAWYQQKPGKAPKLLIYAASSLQSGVPSRFSGSGSGTDFTLTISSLQPEDFAIYYCQQANSVPITFGQGTRLEIK
rate of loss of asthma control: 22%
